T1: Alb4C-His (recombinant His-tagged C-terminus of Alb4, aa 334-499) (UniProt Q9FYL3 334-499)
T1 sequence: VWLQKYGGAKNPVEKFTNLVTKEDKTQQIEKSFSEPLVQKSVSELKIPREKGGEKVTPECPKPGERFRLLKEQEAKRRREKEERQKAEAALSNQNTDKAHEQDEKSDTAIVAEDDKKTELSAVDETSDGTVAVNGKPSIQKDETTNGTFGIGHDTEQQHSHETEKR

B1: His-mSTIC2 (recombinant mature Arabidopsis thaliana STIC2, aa 49-182) (natural protein)
chain: VNGLFGGGNKDNNSEDGQSKAGIFGNMQNMYETVKKAQMVVQVEAVRVQKELAAAEFDGYCAGELVKVTLSGNQQPIRTDITEAAMELGSEKLSQLVTEAYKDAHAKSVVAMKERMSDLAQSLGMPPGLSEGMK
B2: Alb3C-His (recombinant His-tagged C-terminus of Alb3, aa 350-462) (domain or fragment)
chain: VYLRKLGGAKPNMDENASKIISAGRAKRSIAQPDDAGERFRQLKEQEKRSKKNKAVAKDTVELVEESQSESEEGSDDEEEEAREGALASSTTSKPLPEVGQRRSKRSKRKRTV

Tests used:
[1] = molecular target: T1, Alb4C-His (recombinant His-tagged …); experiment: ITC
[2] = molecular target: B1; experiment: peptide or protein array
[3] = molecular target: B1; experiment: ITC

Row | Binder | binding result [2] | other results
1 | B1 |  | Kd [1]: 16.6 µM
2 | GERFRQLKEQEKRSK [Alb3 15mer peptide spot (aa 386-400)] | binds | 
3 | PKPGERFRLLKEQEA [Alb4 15mer peptide spot (aa 394-408)] | binds | 
4 | B2 |  | Kd [3]: 136 µM
